Where “and” joins values, the source holds several entries; their conditions need not be identical. Equal entries are not always repeated. Each block holds one binder with its values, some of them ahead of it.
Legend:
[1] = molecular target: T1, human CD40 (human, UniProt P25942 21-277); assay: cell-based or functional assay
[2] = molecular target: T2, human serum albumin (human, UniProt P02768 25-609); assay: SPR (BIAcore 3000), HSA amine-coupled on CM5 chip, ILF as analyte, 1:1 Langmuir fit, 25 C
T2 construct: Amine-coupled to a CM5 BIAcore chip; also called HSA
T2 sequence (P02768 25-609 limits assumed): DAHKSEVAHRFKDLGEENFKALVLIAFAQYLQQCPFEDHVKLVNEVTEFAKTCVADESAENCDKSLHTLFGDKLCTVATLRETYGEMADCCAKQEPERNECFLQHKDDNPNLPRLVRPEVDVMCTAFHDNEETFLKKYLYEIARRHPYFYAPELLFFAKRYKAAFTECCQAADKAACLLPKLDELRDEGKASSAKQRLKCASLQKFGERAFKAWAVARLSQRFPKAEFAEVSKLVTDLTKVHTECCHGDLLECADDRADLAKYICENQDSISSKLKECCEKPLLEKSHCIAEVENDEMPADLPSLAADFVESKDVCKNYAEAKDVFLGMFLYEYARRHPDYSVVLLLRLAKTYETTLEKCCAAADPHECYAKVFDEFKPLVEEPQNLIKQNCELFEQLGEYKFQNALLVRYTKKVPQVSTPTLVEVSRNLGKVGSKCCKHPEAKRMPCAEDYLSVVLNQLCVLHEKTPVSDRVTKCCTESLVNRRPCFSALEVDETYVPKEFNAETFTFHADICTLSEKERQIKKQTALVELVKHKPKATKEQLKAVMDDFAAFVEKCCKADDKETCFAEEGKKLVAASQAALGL
From the text: (§1) A BIAcore™ 3000 instrument (GE Healthcare) was used to analyze the binding kinetics of anti-CD40-AlbudAb ILFs to human and cynomolgus serum albumin. Approximately 400 response units (RU) of human serum albumin (HSA) or cynomolgus serum albumin (CSA) were immobilized on a flow-cell of a CM5 BIAcore™ chip using an Amine Coupling Kit (GE Healthcare). A second flow cell without any ligand immobilized served as a reference flow-cell for inline referencing. An appropriate doubling dilution series of each dAb to be analyzed was prepared in HBS-EP buffer (0.01 M HEPES pH 7.4 with 0.15 M NaCl, 3 mM EDTA and 0.005% v/v Surfactant P20, GE Healthcare). Two hundred microlitres of each ILF were injected in duplicate using the instrument's KINJECT function. The injections were made across the serum albumin-immobilized and reference flow-cells in series, with inline subtraction of the signal from the reference cell. The experiment was performed at 25° C. and a flow rate of 40 μl/min of HBS-EP. After each injection had been completed, the dAb was allowed to dissociate from the ligand in buffer for 120 s before regeneration with a 10 μl injection of 10 mM glycine pH 2.0. A reference injection of HBS-EP buffer blank (containing no analyte) was also injected under the same conditions to serve as a second reference for subtraction from each analyte trace. BIAevaluation 4.1 software (GE Healthcare) was used to subtract both the reference flow-cell trace and the buffer blank trace from each analyte trace.
(§2) The same software was used to perform a simultaneous, global fit of a 1:1 (Langmuir) kinetic model to the association and dissociation phases of the analyte dilution series traces. This model yielded association and dissociation rate constants (kₐ and kd, respectively) and the equilibrium dissociation constant (KD) of the interaction.

[3] = molecular target: T3, cynomolgus serum albumin (cynomolgus, UniProt A2V9Z4 25-608); assay: SPR (BIAcore 3000), CSA amine-coupled on CM5 chip, ILF as analyte, 1:1 Langmuir fit, 25 C
T3 construct: Amine-coupled to a CM5 BIAcore chip; also called CSA; Cyno Serum Albumin
T3 sequence (A2V9Z4 25-608 limits assumed): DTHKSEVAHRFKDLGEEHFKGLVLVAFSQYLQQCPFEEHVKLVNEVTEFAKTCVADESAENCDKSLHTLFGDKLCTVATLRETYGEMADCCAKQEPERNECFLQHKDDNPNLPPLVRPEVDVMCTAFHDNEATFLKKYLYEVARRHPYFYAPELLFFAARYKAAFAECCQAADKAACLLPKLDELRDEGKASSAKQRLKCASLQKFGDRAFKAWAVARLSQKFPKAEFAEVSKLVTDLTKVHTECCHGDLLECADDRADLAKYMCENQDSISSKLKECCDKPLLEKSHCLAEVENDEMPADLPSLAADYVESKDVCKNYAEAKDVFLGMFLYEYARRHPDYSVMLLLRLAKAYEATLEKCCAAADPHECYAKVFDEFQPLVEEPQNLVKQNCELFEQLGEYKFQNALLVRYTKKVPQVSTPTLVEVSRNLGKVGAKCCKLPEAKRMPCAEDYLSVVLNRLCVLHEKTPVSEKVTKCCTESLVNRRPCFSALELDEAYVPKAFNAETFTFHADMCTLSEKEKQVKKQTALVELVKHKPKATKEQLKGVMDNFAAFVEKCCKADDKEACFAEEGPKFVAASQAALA
From the text: as §1, §2

[4] = molecular target: T4, human CD40 (BMS, CY24FEB06-01) (human, UniProt P25942 21-193); assay: bead RBA, competition with IZ-CD40L
T4 construct: Soluble reagent of the bead and ELISA RBA; It is detected with an anti-human IgG (Fc) mAb, so it may be a CD40-Ig fusion

[5] = molecular target: T1, human CD40; assay: CHO-CD40 cell RBA: competition with biotinylated human IZ-CD40L for human CD40 on CHO cells, fluorescence (FMAT); 0.1% BSA
[6] = molecular target: T1, human CD40; assay: CHO-CD40 cell RBA: competition with biotinylated human IZ-CD40L for human CD40 on CHO cells, fluorescence (FMAT); 50 µM HSA
[7] = molecular target: T5, wild type human CD40 Fc fusion (human, UniProt P25942 21-193); assay: SPR, ProteOn XPR36; CD40-Fc captured, dAb analyte; 1:1 fit; repeat
T5 construct: also called wt-hCD40; not shown: human IgG1 Fc

[8] = molecular target: T6, human CD40 (W109R) Fc fusion (Chimpanzee CD40) (human, UniProt P25942 21-193); assay: SPR, ProteOn XPR36; CD40-Fc captured, dAb analyte; 1:1 fit;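 further: CD40-Fc captured on anti-human IgG(Fc) surface of a GLC chip, buffer pH 7.1, sensorgrams double-referenced against surfaces without CD40-Fc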
T6 construct: Same construct as wt-hCD40 with W109R (the residue of chimpanzee CD40); also called hCD40-M3; hCD40 M3 (W109R); not shown: human IgG1 Fc

[9] = molecular target: T7, wild type cynomolgus monkey CD40 Fc fusion (cynomolgus monkey (Macaca …)); assay: as above
T7 construct: also called wt-cCD40; wt-cyno-CD40; not shown: human IgG1 Fc
T7 chain: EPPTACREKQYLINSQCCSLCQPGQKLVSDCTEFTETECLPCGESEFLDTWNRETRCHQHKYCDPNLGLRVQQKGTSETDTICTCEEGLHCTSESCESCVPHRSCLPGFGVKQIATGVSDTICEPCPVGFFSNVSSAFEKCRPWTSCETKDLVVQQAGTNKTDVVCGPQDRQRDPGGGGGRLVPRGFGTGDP

[10] = molecular target: T8, human CD40 (W109L, L121P) Fc fusion (human, UniProt P25942 21-193); assay: as above
T8 construct: Same construct as wt-hCD40 with W109L and L121P; also called hCD40-M4; hCD40 M4 (W109L, L121P); not shown: human IgG1 Fc

[11] = molecular target: T9, human CD40 (H76R) Fc fusion (human, UniProt P25942 21-193); assay: as above
T9 construct: also called hCD40-M1; hCD40 M1 (H76R); not shown: human IgG1 Fc

[12] = molecular target: T10, human CD40 (H76R, W109L, L121P) Fc fusion (human); assay: as above
T10 construct: Same construct as wt-hCD40 with H76R, W109L and L121P; also called hCD40-M5; hCD40-M5 (H76R, W109L, L121P); not shown: human IgG1 Fc
T10 chain: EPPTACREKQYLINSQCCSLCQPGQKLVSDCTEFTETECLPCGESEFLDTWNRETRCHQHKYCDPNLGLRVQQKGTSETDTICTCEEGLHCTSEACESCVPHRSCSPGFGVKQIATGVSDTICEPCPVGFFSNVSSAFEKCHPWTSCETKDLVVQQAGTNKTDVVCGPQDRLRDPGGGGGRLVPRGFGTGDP

[13] = molecular target: T5, wild type human CD40 Fc fusion; assay: as above
Method: Assays were performed on a BioRad ProteOn XPR36 SPR instrument. The SPR surfaces were prepared by immobilizing 8 μg/ml anti-human IgG(Fc) antibody (Biacore/GE Healthcare) in 10 mM sodium acetate pH 4.5 on a BioRad GLC sensor chip using standard ethyl(dimethylaminopropyl) carbodiimide (EDC)/N-hydroxysuccinimide (NHS) chemistry, with ethanolamine blocking. The running buffer for immobilization and kinetic binding analysis was 10 mM sodium phosphate, 130 mM sodium chloride, 0.05% tween 20, pH 7.1. CD40-Fc fusion proteins at concentrations of 20 μg/ml were captured in the vertical orientation on these surfaces via the Fc tail, and reference surfaces lacking CD40-Fc proteins were used for reference subtraction. […] The surfaces were regenerated in both horizontal and vertical orientations with 30 s pulses of 3 M MgCl₂ followed by running buffer at 60 μl/min. Sensogram data was double-referenced and then fitted to a 1:1 Langmuir model using BioRad ProteOn Manager V.2.1.0.38 software, to determine the association rate constant (ka), the dissociation rate constant (kd), and the equilibrium dissociation constant (KD).

[14] = molecular target: T11, human CD40 (W109L) Fc fusion (human, UniProt P25942 21-193); assay: as above
T11 construct: Same construct as wt-hCD40 with W109L; also called hCD40-M2; hCD40 M2 (W109L); not shown: human IgG1 Fc

B4: BMS3h-56 (other)
VH: EVQLLESGGGLVQPGGSLRLSCAASGFTFRDYEMWWVRQAPGKGLERVSAINPQGTRTYYADSVKGRFTISRDNSKNTLYLQMNSLRAEDTAVYYCAKLPFIFDYWGQGTLVTVSS
notes: dAb, single VH
EC50 [4]: 1000 nM and 500 nM

B5: BMS3h-37 (other)
VH: EVQLLESGGGLVQPGGSLRLSCAASGFTFEWYEMQWVRQAPGKGLEWVSAISGDGYRTYYADSVKGRFTISRDNSKNTLYLQMNSLRAEDTAVYYCAKELGYFDYWGQGTLVTVSS
notes: dAb, single VH
EC50 [4]: 100 nM and 200 nM

B6: BMS3h-193 (other)
VL: DIQMTQSPSSLSASVGDRVTITCRASQTIERRLNWYQQKPGKAPKLLIYLASRLQSGVPSRFSGSGSGTDFTLTISSLQPEDFATYYCHQYASPPLTFGQGTKVEIKR
notes: dAb, single VK
EC50 [4]: 1000 nM

B8: BMS3h-217-16 (other)
VL: DIQMTQSPSSLSASVGDRVTITCRASHFIGTLLSWYQQKPRKAPKLLITYGSLLQSGVPSRFSGSGSGTDFTLTISSLQPEDFATYYCGQGVLWPPTFGQGTKVEIKR
notes: Anti-human CD40 domain antibody (dAb), single V kappa domain
Kd [7]: 0.26 nM | koff [7]: 0.000847 s⁻¹ | kon [7]: 3.3e+06 M⁻¹ s⁻¹ | Kd [8]: 0.27 nM | koff [8]: 0.00104 s⁻¹ | kon [8]: 3.78e+06 M⁻¹ s⁻¹ | Kd [9]: 0.43 nM | koff [9]: 0.00147 s⁻¹ | kon [9]: 3.44e+06 M⁻¹ s⁻¹ | Kd [10]: 0.35 nM | koff [10]: 0.00152 s⁻¹ | kon [10]: 4.39e+06 M⁻¹ s⁻¹ | Kd [11]: 0.35 nM | koff [11]: 0.00168 s⁻¹ | kon [11]: 4.83e+06 M⁻¹ s⁻¹ | Kd [12]: 0.47 nM | koff [12]: 0.0017 s⁻¹ | kon [12]: 3.65e+06 M⁻¹ s⁻¹ | Kd [13]: 0.22 nM | koff [13]: 0.000991 s⁻¹ | kon [13]: 4.47e+06 M⁻¹ s⁻¹ | Kd [14]: 0.41 nM | koff [14]: 0.00167 s⁻¹ | kon [14]: 4.06e+06 M⁻¹ s⁻¹

B11: BMS3h-131 (other)
VL: DIQMTQSPSSLSASVGDRVTITCRANSSILWALAWYQQKPGKAPKLLIESSSGLQSGVPSRFSGSGSGTDFTLTISSLQPEDFATYYCVQNAGWPGTFGQGTKVEIKR
notes: dAb, single VK
EC50 [4]: 500 nM and > 1000 nM

Other lines, results leading:

ICAM-1 Cell Assay EC50 (nM), 10% bovine serum [1]: 33.5 nM | ICAM-1 Cell Assay EC50 (nM), 10% human serum [1]: > 1000 nM | Kd [2]: 1.21 nM and 1.23 nM | koff [2]: 0.00133 s⁻¹ and 0.00147 s⁻¹ | kon [2]: 1.1e+06 M⁻¹ s⁻¹ and 1.19e+06 M⁻¹ s⁻¹ | Kd [3]: 2.5 nM and 2.42 nM | koff [3]: 0.00252 s⁻¹ and 0.00266 s⁻¹ | kon [3]: 1.01e+06 M⁻¹ s⁻¹ and 1.1e+06 M⁻¹ s⁻¹
B1: DMS0662 DOM7h-11-90-TVAAPS-BMS3h-56-201 (bispecific antibody)
chain: DIQMTQSPSSLSASVGDRVTITCRASRPIGTMLSWYQQKPGKAPKLLILAFSRLQSGVPSRFSGSGSGTDFTLTISNLQPEDFATYYCAQAGTHPTTFGQGTKVEIKRTVAAPSEVQLLESGGGLVQPGGSLRLSCAASGFTFRDYEMWWVRQAPGKGLERVSAINPQGTRTYYADSVKGRFTISRDNSKNTLYLQMNSLRAEDTAVYYCAKLPFYFQEWGQGTLVTVSS
notes: AlbudAb inline fusion (ILF): an anti-CD40 dAb and an anti-serum-albumin dAb joined by a linker in one polypeptide

ICAM-1 Cell Assay EC50 (nM), 10% bovine serum [1]: 21.4 nM | ICAM-1 Cell Assay EC50 (nM), 10% human serum [1]: > 1000 nM | Kd [2]: 1.12 nM and 1.21 nM | koff [2]: 0.0014 s⁻¹ and 0.0016 s⁻¹ | kon [2]: 1.25e+06 M⁻¹ s⁻¹ and 1.32e+06 M⁻¹ s⁻¹ | Kd [3]: 2.38 nM and 2.52 nM | koff [3]: 0.00281 s⁻¹ and 0.00296 s⁻¹ | kon [3]: 1.18e+06 M⁻¹ s⁻¹
B2: DMS0663 DOM7h-11-86-TVAAPS-BMS3h-56-201 (bispecific antibody)
chain: DIQMTQSPSSLSASVGDRVTITCRASRPIGTMLSWYQQKPGKAPKLLILAFSRLQSGVPSRFSGSGSGTDFTLTISSLQPEDVATYYCAQAGTHPTTFGQGTKVEIKRTVAAPSEVQLLESGGGLVQPGGSLRLSCAASGFTFRDYEMWWVRQAPGKGLERVSAINPQGTRTYYADSVKGRFTISRDNSKNTLYLQMNSLRAEDTAVYYCAKLPFYFQEWGQGTLVTVSS
notes: as for B1

ICAM-1 Cell Assay EC50 (nM), 10% bovine serum [1]: 16.5 nM | ICAM-1 Cell Assay EC50 (nM), 10% human serum [1]: > 1000 nM | Kd [2]: 0.57 nM and 1.59 nM | koff [2]: 0.00142 s⁻¹ and 0.00149 s⁻¹ | kon [2]: 2.5e+06 M⁻¹ s⁻¹ and 930000 M⁻¹ s⁻¹ | Kd [3]: 1.09 nM and 2.97 nM | koff [3]: 0.00273 s⁻¹ and 0.00272 s⁻¹ | kon [3]: 2.51e+06 M⁻¹ s⁻¹ and 920000 M⁻¹ s⁻¹
B3: DMS0664 DOM7h-11-69-TVAAPS-BMS3h-56-201 (bispecific antibody)
chain: DIQMTQSPSSLSASVGDRVTITCRASRPIGTMLSWYQQKPGKAPKLLILAFSRLQSGVPSRFSGSGSGTDFTLTISSLQPEDFATYYCAQAGVHPTTFGQGTKVEIKRTVAAPSEVQLLESGGGLVQPGGSLRLSCAASGFTFRDYEMWWVRQAPGKGLERVSAINPQGTRTYYADSVKGRFTISRDNSKNTLYLQMNSLRAEDTAVYYCAKLPFYFQEWGQGTLVTVSS
notes: as for B1

EC50 [5]: 15 nM | EC50 [6]: 8.6 nM
B7: DMS0654 BMS3h-56-201-AST-DOM7h-11-3 (bispecific antibody)
chain: EVQLLESGGGLVQPGGSLRLSCAASGFTFRDYEMWWVRQAPGKGLERVSAINPQGTRTYYADSVKGRFTISRDNSKNTLYLQMNSLRAEDTAVYYCAKLPFYFQEWGQGTLVTVSSASTDIQMTQSPSSLSASVGDRVTITCRASRPIGTTLSWYQQKPGKAPKLLILWNSRLQSGVPSRFSGSGSGTDFTLTISSLQPEDFATYYCAQAGTHPTTFGQGTKVEIKR
notes: as for B1

Kd [7]: 0.48 nM | koff [7]: 0.000981 s⁻¹ | kon [7]: 2.03e+06 M⁻¹ s⁻¹ | Kd [8]: 0.72 nM | koff [8]: 0.00196 s⁻¹ | kon [8]: 2.73e+06 M⁻¹ s⁻¹ | Kd [9]: 0.86 nM | koff [9]: 0.00212 s⁻¹ | kon [9]: 2.46e+06 M⁻¹ s⁻¹ | Kd [10]: 0.93 nM | koff [10]: 0.00259 s⁻¹ | kon [10]: 2.78e+06 M⁻¹ s⁻¹ | Kd [11]: 0.94 nM | koff [11]: 0.00299 s⁻¹ | kon [11]: 3.17e+06 M⁻¹ s⁻¹ | Kd [12]: 0.99 nM | koff [12]: 0.00242 s⁻¹ | kon [12]: 2.44e+06 M⁻¹ s⁻¹ | Kd [13]: 0.47 nM | koff [13]: 0.00127 s⁻¹ | kon [13]: 2.71e+06 M⁻¹ s⁻¹ | Kd [14]: 0.99 nM | koff [14]: 0.00251 s⁻¹ | kon [14]: 2.55e+06 M⁻¹ s⁻¹
B9: BMS3h-217-5 (other)
VL: DIQMTQSPSFLSASVGDRVTITCRASHFIATLLSWYQQKPGKAPKLLITYGSLLQSGVPSRFSGSGSGTDFTLTISSLQPEDFATYYCGQGVLWPPTFGQGTKVEIKR
notes: as for B8

Kd [7]: 1.52 nM | koff [7]: 0.00163 s⁻¹ | kon [7]: 1.07e+06 M⁻¹ s⁻¹ | Kd [8]: 1.22 nM | koff [8]: 0.00186 s⁻¹ | kon [8]: 1.53e+06 M⁻¹ s⁻¹ | Kd [9]: 1.9 nM | koff [9]: 0.00235 s⁻¹ | kon [9]: 1.24e+06 M⁻¹ s⁻¹ | Kd [10]: 1.61 nM | koff [10]: 0.00268 s⁻¹ | kon [10]: 1.67e+06 M⁻¹ s⁻¹ | Kd [11]: 1.59 nM | koff [11]: 0.00262 s⁻¹ | kon [11]: 1.64e+06 M⁻¹ s⁻¹ | Kd [12]: 2.21 nM | koff [12]: 0.00287 s⁻¹ | kon [12]: 1.3e+06 M⁻¹ s⁻¹ | Kd [13]: 0.78 nM | koff [13]: 0.00127 s⁻¹ | kon [13]: 1.64e+06 M⁻¹ s⁻¹ | Kd [14]: 1.95 nM | koff [14]: 0.00291 s⁻¹ | kon [14]: 1.49e+06 M⁻¹ s⁻¹
B10: BMS3h-217-23 (other)
VL: DIQMTQSPSSLSASVGDRVTITCRASHFIGSLLSWYQVKPGKAPKLLITYGSLLQSGVPSRFSGSGSGTDFTLTISSLQPEDFATYYCGQGVLWPATFGQGTTVEIKR
notes: as for B8

EC50 [4]: 30 nM
B12: BMS3h-197 (other)
VH: EVQLLESGGGLVQPGGSLRLSCAASGFTFGSAAMDWVRQAPGKGLEWVSSINDMGSNTYYADSVKGRFTISRDNSKNTLYLQMNSLRAEDTAVYYCAKQGGRFDYWGQGTLVTVSS
notes: dAb, single VH
